{"source": "paper PMC10201431", "about": "“SirA inhibits the essential DnaA:DnaD interaction to block helicase recruitment during Bacillus subtilis sporulation” (Nucleic Acids Research, 2022)", "key": {"[1]": {"target": "DnaD^L22A, purified recombinant (B. subtilis) (UniProt P39787)", "assay": "SEC-MALS; 20°C; 40 mM Tris-HCl pH 8, 500 mM NaCl, 1 mM EDTA, 20 mM imidazole, 2.5% glycerol; 100 μl injected"}, "[2]": {"target": "the molecule itself", "assay": "cross-linking; BS3, 250 nM protein, 500x molar excess BS3, 6 min at 20°C, 20 mM HEPES pH 7.2, 100 mM NaCl, 10 mM magnesium acetate; SDS-PAGE and anti-DnaD immunoblot"}, "[3]": {"target": "the molecule itself", "assay": "SEC-MALS; 20°C; 40 mM Tris-HCl pH 8, 500 mM NaCl, 1 mM EDTA, 20 mM imidazole, 2.5% glycerol; 100 μl injected"}}}
{"molecule": "DnaD^L22A, purified recombinant (from UniProt P39787 1-232) (natural protein)", "values": [{"measurement": "percent present as monomer", "setting": "[1]", "value": "> 50", "unit": "%"}, {"measurement": "stoichiometry N", "setting": "[1]", "value": 4}]}
{"molecule": "DnaD^F6A, purified recombinant (natural protein, B. subtilis, UniProt P39787 1-232, looked up, DnaD, B. subtilis 168CA, with F6A; made from pSF17 by Quickchange; source: E. coli BL21(DE3)-pLysS, purified (HisTrap, SUMO protease digestion, reverse HisTrap)) MKKQQAIDMQEQGTSTIPNLLLTHYKQLGLNETELILLLKIKMHLEKGSYFPTPNQLQEGMSISVEECTNRLRMFIQKGFLFIEECEDQNGIKFEKYSLQPLWGKLYEYIQLAQNQTQERKAEGEQKSLYTIFEEEFARPLSPLECETLAIWQDQDQHDAQLIKHALKEAVLSGKLSFRYIDRILFEWKKNGLKTVEQAKIHSQKFRRVQAKQNEPQKEYKRQVPFYNWLEQ", "values": [{"measurement": "stoichiometry N", "setting": "[2]", "value": 2}]}
{"molecule": "DnaD^K3A, purified recombinant (natural protein, B. subtilis, UniProt P39787 1-232, looked up, DnaD, B. subtilis 168CA, with K3A; made from pSF17 by Quickchange; source: E. coli BL21(DE3)-pLysS, purified (HisTrap, SUMO protease digestion, reverse HisTrap)) MKAQQFIDMQEQGTSTIPNLLLTHYKQLGLNETELILLLKIKMHLEKGSYFPTPNQLQEGMSISVEECTNRLRMFIQKGFLFIEECEDQNGIKFEKYSLQPLWGKLYEYIQLAQNQTQERKAEGEQKSLYTIFEEEFARPLSPLECETLAIWQDQDQHDAQLIKHALKEAVLSGKLSFRYIDRILFEWKKNGLKTVEQAKIHSQKFRRVQAKQNEPQKEYKRQVPFYNWLEQ", "values": [{"measurement": "stoichiometry N", "setting": "[2]", "value": 2}]}
{"molecule": "DnaD, wild type, purified recombinant (natural protein, B. subtilis, UniProt P39787 1-232, looked up, DnaD, B. subtilis 168CA; dnaD amplified from genomic DNA and cloned into pSF17; The printed theoretical mass of the tetramer (110 kDa) fits the whole protein; also called Wild-type DnaD; source: E. coli BL21(DE3)-pLysS, purified (HisTrap, SUMO protease digestion, reverse HisTrap)) MKKQQFIDMQEQGTSTIPNLLLTHYKQLGLNETELILLLKIKMHLEKGSYFPTPNQLQEGMSISVEECTNRLRMFIQKGFLFIEECEDQNGIKFEKYSLQPLWGKLYEYIQLAQNQTQERKAEGEQKSLYTIFEEEFARPLSPLECETLAIWQDQDQHDAQLIKHALKEAVLSGKLSFRYIDRILFEWKKNGLKTVEQAKIHSQKFRRVQAKQNEPQKEYKRQVPFYNWLEQ", "values": [{"measurement": "stoichiometry N", "setting": "[3]", "value": 4}]}
